Results from patent US20020123056.

Tested on: T1, GST-SGK2 fusion protein (human SGK2 with N-terminal Glutathione S-transferase tag, expressed in Hi5 insect cells)
T1 sequence: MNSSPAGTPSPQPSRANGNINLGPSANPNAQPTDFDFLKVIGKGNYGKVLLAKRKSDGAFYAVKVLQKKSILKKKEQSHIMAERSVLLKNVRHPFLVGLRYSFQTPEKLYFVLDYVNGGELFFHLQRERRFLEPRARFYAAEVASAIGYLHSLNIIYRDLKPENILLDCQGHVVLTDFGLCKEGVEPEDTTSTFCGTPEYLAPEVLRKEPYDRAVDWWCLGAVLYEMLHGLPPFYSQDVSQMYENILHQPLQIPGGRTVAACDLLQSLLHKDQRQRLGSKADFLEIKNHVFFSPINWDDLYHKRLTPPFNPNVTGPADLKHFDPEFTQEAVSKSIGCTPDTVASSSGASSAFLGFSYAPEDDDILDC

For “active His-tag PDK1 (expressed in insect cells, purified on Talon affinity column)”, the “in vitro phosphorylation of SGK2 by PDK1 (32P, SDS-PAGE imaging)” value was “SGK2 activated by PKD1 was significantly phosphorylated, while non-activated SGK2 was not”.
